According to a protein production outcome set (Wang et al. 2014):

test: label from the status in PepcDB records

**Q.** With “ASETQQWKTLEDTRSALMGVYGLTRAALADNNTHWICGDLRKGDFTVYKRSDLQAVSDNELNKPYDLLKKVSNWRRFYAVINAASVFMEKAPRTVELDRSYSEQNLKYDIAQVRALRAFAYFYMVRIWGDVPLVTYSYDNGTFPSMPRTDAQTVLSYAKAELLTAIEDLPYQYGTQTNLYYGSYGAQWQGKLFNKLSAYSVLAHICAWQGNYAEAETYSAFIIDHASEINAKYTSIADLTSETGLFYSNASVKGSRILGFNFAHNDNEATQSGHLEQLTLAYPLVQKSYPEIYISKDSLFSIFTNFDDLRFGIIDTIKYSSYYVQNLNEETPVFSKIKIIQDGSAKDNDFGVFGSSIVFTRLEDITLLRAEALCALNRSTEAVSYLNMIRTNRGLREVSFKKDFGNNRESLIAEIFEERRRELMGEGWRWYDLVRRQKLMKDNEAFLRLISSGGIYWPVSEDIITANSQIEQNEFWK” as the sequence, how does the protein production read?
**A.** Its protein production is “not failed”.

**Q.** For “ASHLQFVQPKKAPPLSVSLIQGNIPQDLKWLTEYQFKTLMIYANLTRSEWGRDLIVWPESSIPMFQTDIQPFLDAMNQQAKNRGSAWVTGIPYWDVTGSREVGTPLYYNSIMASGDNSQGLYKKQRLVPFGEYIPLSGLLSWVLPALQNDPSMSGFSQGSNNQKPLMIKGHRLAAAICYEVAYPNLTRRNAENSDFLVTVSNDAWFTGTAGPMQHLQMVQMRAKENGRWFIRATNTGVTAFIDSQGHIVKQAPIDKEAVLRGDLPAMQGETLYTRLSDWPILLFSVLLLILGWIYRPRQVDVSFKSRR”, which protein production is on record?
**A.** The protein production was “failed”.

**Q.** For “ASNTNLIVNYLPQDMTDRELYALFRAIGPINTCRIMRDYKTGYSYGYAFVDFTSEMDSQRAIKVLNGITVRNKRLKVSYARPGGESIKDTNLYVTNLPRTITDDQLDTIFGKYGSIVQKNILRDKLTGRPRGVAFVRYNKREEAQEAISALNNVIPEGGSQPLSVRLA”, which protein production is on record?
**A.** Its protein production is “not failed”.

**Q.** Which protein production does the source give for “ASRPHQWQTDEEGVRTGKCSFPVKYLGHVEVDESRGMHICEDAVKRLKATGKKAVKAVLWVSADGLRVVDEKTKDLIVDQTIEKVSFCAPDRNFDRAFSYICRDGTTRRWICHCFMAVKDTGERLSHAVGCAFAACLERKQKR” here?
**A.** The protein production was “not failed”.

**Q.** For “ATAPTPASSETLSGNPALPPPVPGERHDIDSFGGRLTYWSAAPAEPTSEPPLLLIHSVNAAGSAYEVRPIFEHYARSRPVYAIELPGFGHSSRAKRQYTIRMMTDAVHSVVAEIQKVHADKRIDALALSLGSEFLARAASETPQAFRSLALVAPTGFDKKNQRWTAGSRAIPWLHSFFENPVWSESIFKLLTMKPVIGWFLKKAFGSPSIDQGMLDYDYLTTHQPGAQHAPYYFVSGYLFSQDILRIYQDLPMPVWFSHGVRGDFVDYTLKTTVEGRPNWTVTVFQTGAMPHFEVPGEFMRAYDEFLGRVTKA”, which protein production is on record?
**A.** The protein production was “failed”.

**Q.** For “ATDSATAAPAAAATTQVQKEAADVLQVAVQGANAMRDIQFARLALFHGQPDSAKKLTDDAAALLAADDASWAKFVKTDAKAKMIADRYVIINASIALSEDYVATPEKESAIQSANEKLAKGDQKGAIDTLRLAGIGVIENQYLMPLNQTRKAVAQSQELLKAGKYYEANLVLKGAEEGIVVDSEMLVAGN”, which protein production is on record?
**A.** Its protein production is “not failed”.

**Q.** With “ATTMEQETCAHSLTFEECPKCSALQYRNGFYLLKYDEEWYPEELLTDGEDDVFDPELDMEVVFELQGNSTSSDKNNSSSEGNEGVIINNFYSNQYQNSIDLSANAAGSDPPRTYGQFSNLLSGAVNAFSNMLPLLADQNTEEMENLSDRVSQDTAGNTVTNTQSTVGRLVGYGTVHDGEHPASCADTASEKILAVERYYTFKVNDWTSTQKPFEYIRIPLPHVLSGEDGGVFGAALRRHYLVKTGWRVQVQCNASQFHAGSLLVFMAPEYPTLDAFAMDNRWSKDNLPNGTRTQTNKKGPFAMDHQNFWQWTLYPHQFLNLRTNTTVDLEVPYVNIAPTSSWTQHASWTLVIAVVAPLTYSTGASTSLDITASIQPVRPVFNGLRHETLSRQ” as the sequence, how does the protein production read?
**A.** Its protein production is “not failed”.

**Q.** Which protein production does the source give for “AVDLNKENRDPKYVESIVNRSQKIVDKLGLTDAKVAEDVCNVIANRYFELNDIYEIRDAKVKAVKESGLTGDAKNEALKAAENEKDAALYRSHFAFPASLSLFLNEEQIEAVKDGMTYGVVKVTYEATLDMIPSLKEEEKVQIYAWLVEAREFAMDAENSNKKHAAFGKYKGRINNYLAKRGYNLTKEREEWAKRVKARGGTL” here?
**A.** Its protein production is “not failed”.

**Q.** For “AWAGLQTKHLKVGDIEWVYSESGNSSKPTIILIHGLAGSRDNWNRVAYNLTPYYHVIIPDLPAHGDTKIPNDFDLSIPNLTEKLRRFAEAGHFEKNVHIAGHSMGGAIALLYTAQYPLETKSLLLVDSAGVFKTANTPYLKDPNLLNNLVVKKTGDFDKLFKLATASPPFIPVELKTEQEKLMIAQSKNTQKMVDQLVAMSKIYTPDTFAIATKSIDVPTYIIWGDQDKIINVEAAQELKSLLKNAETPYILKGVGHMPILEADQLVSQQYLIFLNK”, which protein production is on record?
**A.** Its protein production is “failed”.

**Q.** For “AWGLAATGKEFLWVMRPDSVAGEEAVIPKEFLAETADRRMLTSWCPQEKVLSHPAVGGFLTHCGWNSTLESLSCGVPMVGIEIGGDVKRGEVEAVVRELMDGEKGKKMREKAVEWRRLAEKATKLPCGSSVINFETIVNKVLLGKIPNT”, which protein production is on record?
**A.** The protein production was “failed”.

**Q.** For “AYPDFAPQKFKEKTQGQVKILEDSFLKSSFPTQAELDRLRVETKLSRREIDSWFSERRKLRDSMEQAVLDSMGSGK”, which protein production is on record?
**A.** Its protein production is “not failed”.

**Q.** For “CASRQEHSLRIIHTTDLHGNVFPTDFKALRPTSGGMSRLASFLKAARSDRSELLLFDGGDVLQGDPTAYYYNYMDTTGTHLFSRAMNYLRYDAAIPGNHDIETGHAVYDKWVAGCDFPFLAANAIDTETGKPYWAPYKVFDRNGLRVALLGFITPAIPEWLPQSLWTGMRFDDIIESAKYWVPFVIQKEKPDFVVCVLHSGRENDNSNYLEDAGMTLAREVAGIDVLLLGHDHQEYSRRVKGAEADSVLVLNPANHLDKVSDVRLSLARKGDKVLHKRVEGGLTDISRLTPDSAFMAHFSSDEAAVRRFVNE”, which protein production is on record?
**A.** Its protein production is “failed”.

**Q.** With “CLVDPHTVLPSPISGPTETIRSLRRCAAAGGYGQVALLPRGQSWRDQPERLIGLQNADPSSVHLPLWGGFSLNGKGDELAPHGDLLEHGAIGLADDDAVVPLPLLERGLLLGEMGSCPVLIAPRDPNLQGDGLAREGVETLRAGWAPDPLISELLPLQQLLALQQRHPDRQLRLMNISTAAAVDLLGQADPQLKASVCWWHLLVDGSSLSSTDPGCRVRPSLGGAADRLRLRSALQSGLIQAVAVHAVPLDEEDMLLPADQRPPGLSGHHLVMPALWSALVDQGDLSIESLWELLSFGPSAFLDQP” as the sequence, how does the protein production read?
**A.** The protein production was “failed”.

**Q.** For “CRLLWDYVYQLLSDSRYENFIRWEDKESKIFRIVDPNGLARLWGNHKNRTNMTYEKMSRALRHYYKLNIIRKEPGQRLLFRFMKTPDEIMSGRTDRLEHLESQEL”, which protein production is on record?
**A.** The protein production was “not failed”.

**Q.** With “CSDLPEIQNGWKTTSHTELVRGARITYQCDPGYDIVGSDTLTCQWDLSWSSDPPFCEKTEE” as the sequence, how does the protein production read?
**A.** The protein production was “not failed”.

**Q.** With “CTRAVYLGPDRMVVTGRTMDWKEDIMSNIYVFPRGMQRAGHNKEKTVNWTSKYGSVIATGYDIGTCDGMNEKGLVASLLFLPESVYSLPGDTRPAMGISIWTQYVLDNFATVREAVDEMKKETFRIDAPRMPNGGPESTLHMAITDETGNTAVIEYLDGKLSIHEGKEYQVMTNSPRYELQLAVNDYWKEVGGLQMLPGTNRSSDRFVRASFYIHAIPQTADAKIAVPSVLSVMRNVSVPFGINTPEKPHISSTRWRSVSDQKNKVYYFESTLTPNLFWLDLKKIDFSPKAGVKKLSLTKGEIYAGDAVKDLKDSQS” as the sequence, how does the protein production read?
**A.** The protein production was “not failed”.

**Q.** With “DAALCAFDADGVVTHWNREAERILGWTAAEAVGRRGFAGWAVRTADAEDVEARLMTAMQAPGRQVHEFALLTKDGGRVLVRTQSAAVHGPDGKPAGVYCAFSEVH” as the sequence, how does the protein production read?
**A.** The protein production was “not failed”.

**Q.** With “DAFTDQKIRQRYADLPGELHIIELEKDKNGLGLSLAGNKDRSRMSIFVVGINPEGPAAADGRMRIGDELLEINNQILYGRSHQNASAIIKTAPSKVKLVFIRNEDAVNQMA” as the sequence, how does the protein production read?
**A.** Its protein production is “not failed”.

**Q.** With “DAGGGVGKELVDLKIIWNKTKHDVKVPLDSTGSELKQKIHSITGLPPAMQKVMYKGLVPEDKTLREIKVTSGAKIMVVGSTI” as the sequence, how does the protein production read?
**A.** Its protein production is “not failed”.

**Q.** Which protein production does the source give for “DDFVSLGTSGWHARVVSTVSDPSEVRQFALPDGGILRIASVLSVGGTADWARSVLLPGVSAKEADALMLQRPRLATGLLSLPSIQGESFPVRSHSVGGCILGMRGNQDPLTLYTAVIEGICMTLAHDIKPGGILPATGGGARSVPWMRILASVTNRNIHVTVSEDAALHGAASLAAYATSAEYLPTLAARAIVEIEPEPEVVASFEPLIAKHLELFRFAAALSY” here?
**A.** The protein production was “failed”.

**Q.** Which protein production does the source give for “DGRIFKMFIEHLEFEKGLDAFSQSWIKALEDSEFLAILRLLFHHIVTSESAHEFAANGIDRLYKMVESQFGSGGDKELEWLIGRSLIQMSK” here?
**A.** Its protein production is “not failed”.
